# Test results reported in article PMC8546710.
# How the values were obtained:
# [1] = target: CDV M protein (strain A75/17) mutant G245P (canine distemper virus, strain A75/17); experiment: co-IP; FLAG-M and 2×HA-longlinker-M, both bearing the same mutation, cotransfected in HEK-293T; lysed 24 h posttransfection in 50 mM Tris pH 7.4, 150 mM NaCl, 0.05% NP-40, 5% glycerol, 20 mM sodium molybdate; IP with anti-HA (16B12) and Dynabeads Protein G at 4°C; blot with polyclonal anti-CDV M; coIP efficiency index = (coIP/IP)/(ratio in total lysates), normalised to wt = 100%
# [2] = target: CDV M protein (strain A75/17) mutant K238E (canine distemper virus, strain A75/17); experiment: as above
# [3] = target: CDV M protein (strain A75/17) mutant A94S; experiment: coimmunoprecipitation (coIP efficiency index, Western blot band quantification); details: 2xHA-M and FLAG-M co-expressed in HEK-293T cells; IP anti-HA, IB anti-M; parent: est. 100; read off a plot
# [4] = target: CDV M protein (strain A75/17) mutant D235N; experiment: as above; details: 2xHA-M and FLAG-M co-expressed in HEK-293T cells; IP anti-HA, IB anti-M; parent: est. 100; read off a plot
# [5] = target: CDV M protein (strain A75/17) mutant E89D; experiment: as above; details: 2xHA-M and FLAG-M co-expressed in HEK-293T cells; IP anti-HA, IB anti-M; parent: est. 100; read off a plot
# [6] = target: CDV M protein (strain A75/17) mutant E89G; experiment: as above; details: 2xHA-M and FLAG-M co-expressed in HEK-293T cells; IP anti-HA, IB anti-M; parent: est. 100; read off a plot
# [7] = target: CDV M protein (strain A75/17) mutant E89H; experiment: as above; details: 2xHA-M and FLAG-M co-expressed in HEK-293T cells; IP anti-HA, IB anti-M; parent: est. 100; read off a plot
# [8] = target: CDV M protein (strain A75/17) mutant E89K; experiment: as above; details: 2xHA-M and FLAG-M co-expressed in HEK-293T cells; IP anti-HA, IB anti-M; parent: est. 100; read off a plot
# [9] = target: CDV M protein (strain A75/17) mutant E89R; experiment: as above; details: 2xHA-M and FLAG-M co-expressed in HEK-293T cells; IP anti-HA, IB anti-M; parent: est. 100; read off a plot
# [10] = target: CDV M protein (strain A75/17) mutant E89Y; experiment: as above; details: 2xHA-M and FLAG-M co-expressed in HEK-293T cells; IP anti-HA, IB anti-M; parent: est. 100; read off a plot
# [11] = target: CDV M protein (strain A75/17) mutant E242Q; experiment: as above; details: 2xHA-M and FLAG-M co-expressed in HEK-293T cells; IP anti-HA, IB anti-M; parent: est. 100; read off a plot
# [12] = target: CDV M protein (strain A75/17) mutant G245P; experiment: as above; details: 2xHA-M and FLAG-M co-expressed in HEK-293T cells; IP anti-HA, IB anti-M; parent: est. 100; read off a plot
# [13] = target: CDV M protein (strain A75/17) mutant K92E; experiment: as above; details: 2xHA-M and FLAG-M co-expressed in HEK-293T cells; IP anti-HA, IB anti-M; parent: est. 100; read off a plot
# [14] = target: CDV M protein (strain A75/17) mutant K238E; experiment: as above; details: 2xHA-M and FLAG-M co-expressed in HEK-293T cells; IP anti-HA, IB anti-M; bar marked 'Poorly expressed'; parent: est. 100; read off a plot
# [15] = target: CDV M protein (strain A75/17) mutant K240Q; experiment: as above; details: 2xHA-M and FLAG-M co-expressed in HEK-293T cells; IP anti-HA, IB anti-M; parent: est. 100; read off a plot
# [16] = target: CDV M protein (strain A75/17) mutant K243E; experiment: as above; details: 2xHA-M and FLAG-M co-expressed in HEK-293T cells; IP anti-HA, IB anti-M; parent: est. 100; read off a plot
# [17] = target: CDV M protein (strain A75/17) mutant L96N; experiment: as above; details: 2xHA-M and FLAG-M co-expressed in HEK-293T cells; IP anti-HA, IB anti-M; parent: est. 100; read off a plot
# [18] = target: CDV M protein (strain A75/17) mutant L239D; experiment: as above; details: 2xHA-M and FLAG-M co-expressed in HEK-293T cells; IP anti-HA, IB anti-M; parent: est. 100; read off a plot
# [19] = target: CDV M protein (strain A75/17) mutant P87A; experiment: as above; details: 2xHA-M and FLAG-M co-expressed in HEK-293T cells; IP anti-HA, IB anti-M; parent: est. 100; read off a plot
# [20] = target: CDV M protein (strain A75/17) mutant Y236F; experiment: as above; details: 2xHA-M and FLAG-M co-expressed in HEK-293T cells; IP anti-HA, IB anti-M; parent: est. 100; read off a plot
substance,measurement,setting,value
CDV M protein (strain A75/17) mutant G245P (natural protein),coIP efficiency index (normalised to wt),[1],3.8%
CDV M protein (strain A75/17) mutant K238E (natural protein),coIP efficiency index (normalised to wt),[2],9.7%
"canine distemper virus (CDV) matrix (M) protein, strain A75/17, wild type A94S",percent of parent (percent to wt),[3],98
"canine distemper virus (CDV) matrix (M) protein, strain A75/17, wild type D235N",percent of parent (percent to wt),[4],120
"canine distemper virus (CDV) matrix (M) protein, strain A75/17, wild type E89D",percent of parent (percent to wt),[5],80
"canine distemper virus (CDV) matrix (M) protein, strain A75/17, wild type E89G",percent of parent (percent to wt),[6],47
"canine distemper virus (CDV) matrix (M) protein, strain A75/17, wild type E89H",percent of parent (percent to wt),[7],98
"canine distemper virus (CDV) matrix (M) protein, strain A75/17, wild type E89K",percent of parent (percent to wt),[8],83
"canine distemper virus (CDV) matrix (M) protein, strain A75/17, wild type E89R",percent of parent (percent to wt),[9],77
"canine distemper virus (CDV) matrix (M) protein, strain A75/17, wild type E89Y",percent of parent (percent to wt),[10],91
"canine distemper virus (CDV) matrix (M) protein, strain A75/17, wild type E242Q",percent of parent (percent to wt),[11],150
"canine distemper virus (CDV) matrix (M) protein, strain A75/17, wild type G245P",percent of parent (percent to wt),[12],4
"canine distemper virus (CDV) matrix (M) protein, strain A75/17, wild type K92E",percent of parent (percent to wt),[13],87
"canine distemper virus (CDV) matrix (M) protein, strain A75/17, wild type K238E",percent of parent (percent to wt),[14],9
"canine distemper virus (CDV) matrix (M) protein, strain A75/17, wild type K240Q",percent of parent (percent to wt),[15],100
"canine distemper virus (CDV) matrix (M) protein, strain A75/17, wild type K243E",percent of parent (percent to wt),[16],97
"canine distemper virus (CDV) matrix (M) protein, strain A75/17, wild type L96N",percent of parent (percent to wt),[17],96
"canine distemper virus (CDV) matrix (M) protein, strain A75/17, wild type L239D",percent of parent (percent to wt),[18],110
"canine distemper virus (CDV) matrix (M) protein, strain A75/17, wild type P87A",percent of parent (percent to wt),[19],120
"canine distemper virus (CDV) matrix (M) protein, strain A75/17, wild type Y236F",percent of parent (percent to wt),[20],84
